Source: the supplement of paper PMC10567573

B1: CDC14A (parent)
chain: GPHPKSKIENGYPLHAPEAYFPYF
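Further: lentivirally expressed fusions sorted by FACS into six bins by GFP to DsRed ratio, PSI derived from sequencing read proportions per bin multiplied by bin number.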

Variants of: B1
Experiment: protein stability index of a GFP-peptide fusion (GPS, HEK-293T) (PSI 1-6); higher = more stable
Conditions: c terminus: a fixed tail appended
GYHPKSKIENGYPLHAPEAYFPYF [P2Y] showed a protein stability index of 1.85. Work on GKHPKSKIENGYPLHAPEAYFPYF [P2K] yielded a protein stability index of 1.94. For GEHPKSKIENGYPLHAPEAYFPYF [P2E], the protein stability index was 2.09. In the case of GPHPKSKIENSYPLHAPEAYFPYF [G11S], the protein stability index is reported as 2.09. Work on GPHPKSKIENCYPLHAPEAYFPYF [G11C] yielded a protein stability index of 1.73. With GPHPKSKIENRYPLHAPEAYFPYF [G11R] the protein stability index was 2.5. In the case of GPHPKSKIENWYPLHAPEAYFPYF [G11W], the protein stability index is reported as 1.55. For GPHPKSKIENAYPLHAPEAYFPYF [G11A], the protein stability index was 2.41. GPHPKSKIENKYPLHAPEAYFPYF [G11K] gave a protein stability index of 2.44. Work on GPHPKSKIENTYPLHAPEAYFPYF [G11T] yielded a protein stability index of 1.75. GPHPKSKIENMYPLHAPEAYFPYF [G11M] gave a protein stability index of 2.09. GPHPKSKIENGYPLHAPEAYFPYL [F24L] gave a protein stability index of 2.51. Work on GPHPKSKIENGYPLHAPEAYFPYT [F24T] yielded a protein stability index of 3.41. GPHPKSKIENGYPLHAPEAYFPYM [F24M] showed a protein stability index of 2.23. GPHPKSKIENGYPLHAPEAYFPYW [F24W] showed a protein stability index of 1.89. GPHPKSKIENGYPLHAPEAYFPYN [F24N] gave a protein stability index of 2.62. Variant GPHPKSKIENGYPLHAPEAYFPYQ [F24Q] has a protein stability index of 2.6. In the case of GPHPKSKIENGYPLHAPEAYFPYY [F24Y], the protein stability index is reported as 2.6. For GPHPKSKIENGYWLHAPEAYFPYF [P13W], the protein stability index was 1.58. Variant GPHPKSKIENGYYLHAPEAYFPYF [P13Y] has a protein stability index of 1.88. With GPHPKSKIENGYMLHAPEAYFPYF [P13M] the protein stability index was 1.68. GPHPKSKIENGYELHAPEAYFPYF [P13E] gave a protein stability index of 2.94. In the case of GPHPKSKIENGYVLHAPEAYFPYF [P13V], the protein stability index is reported as 2.05. With GPHPKSKIENGYPLHAGEAYFPYF [P17G] the protein stability index was 2.48. Variant GPHPKSKIENGYPLHAQEAYFPYF [P17Q] has a protein stability index of 2.14. With GPHPKSKIENGYPLHAEEAYFPYF [P17E] the protein stability index was 2.11. GPHPKSKIENGYPLHAWEAYFPYF [P17W] showed a protein stability index of 2.04. For GPHPKSKIENGYPLHANEAYFPYF [P17N], the protein stability index was 2.16. With GPHPKSKIENGYPLHAFEAYFPYF [P17F] the protein stability index was 1.87. Variant GPHPKSKIENGYPLHADEAYFPYF [P17D] has a protein stability index of 2.71. Variant GPHPKSKIENGYPLHASEAYFPYF [P17S] has a protein stability index of 1.87. In the case of EPHPKSKIENGYPLHAPEAYFPYF [G1E], the protein stability index is reported as 2.44. With KPHPKSKIENGYPLHAPEAYFPYF [G1K] the protein stability index was 1.57. MPHPKSKIENGYPLHAPEAYFPYF [G1M] gave a protein stability index of 2.51. For HPHPKSKIENGYPLHAPEAYFPYF [G1H], the protein stability index was 2.08. With SPHPKSKIENGYPLHAPEAYFPYF [G1S] the protein stability index was 1.99. For CPHPKSKIENGYPLHAPEAYFPYF [G1C], the protein stability index was 2.1. IPHPKSKIENGYPLHAPEAYFPYF [G1I] gave a protein stability index of 1.85. Work on FPHPKSKIENGYPLHAPEAYFPYF [G1F] yielded a protein stability index of 2.01. In the case of GPHPKSKIKNGYPLHAPEAYFPYF [E9K], the protein stability index is reported as 1.44. Variant GPHPKSKICNGYPLHAPEAYFPYF [E9C] has a protein stability index of 2.09. Variant GPHPKSKIGNGYPLHAPEAYFPYF [E9G] has a protein stability index of 2.31. Work on GPHPKSKIWNGYPLHAPEAYFPYF [E9W] yielded a protein stability index of 1.77. GPHPKSKIRNGYPLHAPEAYFPYF [E9R] gave a protein stability index of 1.6. Work on GPHPKSKIFNGYPLHAPEAYFPYF [E9F] yielded a protein stability index of 1.77. Variant GPHPKSKIENGYPLHAPDAYFPYF [E18D] has a protein stability index of 2.62. In the case of GPHPKSKIENGYPLHAPHAYFPYF [E18H], the protein stability index is reported as 2.24. GPHPKSKIENGYPLHAPLAYFPYF [E18L] gave a protein stability index of 2.03. Variant GPHPKSKIENGYPLHAPFAYFPYF [E18F] has a protein stability index of 1.92. Work on GPHPKSKIENGYPLHAPGAYFPYF [E18G] yielded a protein stability index of 2.3. For GPHPKSKIENGYPLHAPVAYFPYF [E18V], the protein stability index was 1.57. GPHPKSKIENGYPLHAPNAYFPYF [E18N] gave a protein stability index of 2.01. In the case of GPHPKSKIENGYPLHAPAAYFPYF [E18A], the protein stability index is reported as 2.61. In the case of GPHPKSKIENGYPLHAPMAYFPYF [E18M], the protein stability index is reported as 1.45. GPHPKSMIENGYPLHAPEAYFPYF [K7M] gave a protein stability index of 1.91. In the case of GPHPKSLIENGYPLHAPEAYFPYF [K7L], the protein stability index is reported as 2.06. Work on GPHPKSDIENGYPLHAPEAYFPYF [K7D] yielded a protein stability index of 2.13. GPHPKSAIENGYPLHAPEAYFPYF [K7A] gave a protein stability index of 2.33. GPHPKSWIENGYPLHAPEAYFPYF [K7W] showed a protein stability index of 1.57. In the case of GPHPKSHIENGYPLHAPEAYFPYF [K7H], the protein stability index is reported as 2.22. Work on GPHPKSTIENGYPLHAPEAYFPYF [K7T] yielded a protein stability index of 2.43. Variant GPHPKSEIENGYPLHAPEAYFPYF [K7E] has a protein stability index of 2.27. GPHPKSYIENGYPLHAPEAYFPYF [K7Y] gave a protein stability index of 1.84. In the case of GPHPKSKIENGYPLHAPEAYFKYF [P22K], the protein stability index is reported as 2.67. With GPHPKSKIENGYPLHAPEAYFDYF [P22D] the protein stability index was 2.73. Work on GPHPKSKIENGYPLHAPEAYFMYF [P22M] yielded a protein stability index of 2.76. GPHPKSKIENGYPLHAPEAYFGYF [P22G] gave a protein stability index of 1.8. Variant GPHPKSKIENGYPLHAPEAYFWYF [P22W] has a protein stability index of 2.54. Variant GPHPKSKIENGYPLHAPEAYFSYF [P22S] has a protein stability index of 1.98. GPHPKSKIENGYPLHAPEAYFTYF [P22T] showed a protein stability index of 1.64. With GPHPKSKIENGYPLHAPEAYFLYF [P22L] the protein stability index was 2.38. Variant GPHPKSKIENGYPLHAPEAYFEYF [P22E] has a protein stability index of 2.22. Variant GPHPKRKIENGYPLHAPEAYFPYF [S6R] has a protein stability index of 2.2. GPHPKLKIENGYPLHAPEAYFPYF [S6L] showed a protein stability index of 2.22. GPHPKTKIENGYPLHAPEAYFPYF [S6T] gave a protein stability index of 2.15. Work on GPHPKGKIENGYPLHAPEAYFPYF [S6G] yielded a protein stability index of 2.14. Variant GPHPKCKIENGYPLHAPEAYFPYF [S6C] has a protein stability index of 1.87. GPHPKSKIEIGYPLHAPEAYFPYF [N10I] gave a protein stability index of 1.63. For GPHPKSKIEKGYPLHAPEAYFPYF [N10K], the protein stability index was 2.65. For GPHPKSKIEFGYPLHAPEAYFPYF [N10F], the protein stability index was 2.51. For GPHPKSKIESGYPLHAPEAYFPYF [N10S], the protein stability index was 2.97. GPHPKSKIEGGYPLHAPEAYFPYF [N10G] showed a protein stability index of 2.18. In the case of GPHPKSKIEAGYPLHAPEAYFPYF [N10A], the protein stability index is reported as 2.51. Work on GPHPKSKIEEGYPLHAPEAYFPYF [N10E] yielded a protein stability index of 2.29. Work on GPHPKSKIENGYPLHAPEAHFPYF [Y20H] yielded a protein stability index of 2.71. In the case of GPHPKSKIENGYPLHAPEAMFPYF [Y20M], the protein stability index is reported as 2.71. For GPHPKSKIENGYPLHAPEAFFPYF [Y20F], the protein stability index was 1.89. In the case of GPHPKSKIENGYPLHAPEALFPYF [Y20L], the protein stability index is reported as 3.1. Variant GPHPKSKIENGYPLHAPEATFPYF [Y20T] has a protein stability index of 2.84. Variant GPHPKSKIENGYPLHAPEAVFPYF [Y20V] has a protein stability index of 2.55. Variant GPHPKSKIENGYPLHAPEADFPYF [Y20D] has a protein stability index of 3.29. Variant GPHPKSKIENGYPLHAPEAAFPYF [Y20A] has a protein stability index of 2.76. Work on GPHPKSKIENGYPLHAPEAWFPYF [Y20W] yielded a protein stability index of 2.19. GPHPKSKIENGYPLHAPEAGFPYF [Y20G] gave a protein stability index of 3.25.
